Patent US9012420B2, “Aptamer for chymase, and use thereof” (Ribomic Inc., priority 2009, dated 2015)

Key:
Settings in all cases: tags: human skin mast cell, Calbiochem
chymase [1] = target: T1, chymase (Homo sapiens, UniProt P23946 P23946:22-247); assay: inhibition; angiotensin I; recombinant 0.022
T1 sequence: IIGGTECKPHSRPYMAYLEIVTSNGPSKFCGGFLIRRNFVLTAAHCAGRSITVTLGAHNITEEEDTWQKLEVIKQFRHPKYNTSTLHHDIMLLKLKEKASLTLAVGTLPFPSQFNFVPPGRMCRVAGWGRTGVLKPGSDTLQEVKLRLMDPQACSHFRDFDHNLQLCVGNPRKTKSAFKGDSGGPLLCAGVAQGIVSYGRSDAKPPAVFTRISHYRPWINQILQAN
Procedure: (§1) The total volume of solution for an enzyme reaction in the assay was set to 50 μL, and the reaction was performed in solution C buffer. First, 0.3-0.75 ng of chymase (recombinant, (manufactured by SIGMA) or native (manufactured by Calbiochem)) was diluted with solution C to give 5 μL thereof. Here, the recombinant is chymase expressed by yeast, and the native is chymase purified from human skin mast cell. The nucleic acid was serially diluted with solution C at a concentration of 0.0027-2 μM to give 25 μL thereof. The chymase solution (5 μL) and the nucleic acid solution (25 μL) were mixed, and the mixture was incubated at 37° C. for 5 min. […] The whole mixture was centrifuged at 4° C., 14000 rpm for 10 min, and the supernatant (30 μL) was used for the next fluorescence induction reaction.
(§2) The above-mentioned supernatant (30 μL) was added to a 96 well plate (black, manufactured by Costar), a solution (15 μL) of 2% o-phthalaldehyde (manufactured by SIGMA) in methanol and 0.3M NaOH solution (170 μL) were added to each well, and the mixture was incubated at room temperature for 10 min. […] The plate was set on a microplate reader SpectraMax190 (manufactured by Molecular device) and the fluorescence intensity was measured at an excitation wavelength of 355 nm and a fluorescence wavelength of 460 nm.

chymase [2] = target: T1, chymase; assay: inhibition; angiotensin I; recombinant 0.446
Procedure: as §1, §2

chymase [3] = target: T1, chymase; assay: inhibition; angiotensin I; recombinant 0.397
Procedure: as §1, §2

chymase [4] = target: T1, chymase; assay: inhibition; angiotensin I; recombinant 0.354
Procedure: as §1, §2

chymase [5] = target: T1, chymase; assay: inhibition; angiotensin I; recombinant 0.274
Procedure: as §1, §2

chymase [6] = target: T1, chymase; assay: inhibition; angiotensin I; recombinant 0.207
Procedure: as §1, §2

chymase [7] = target: T1, chymase; assay: inhibition; angiotensin I; recombinant 0.456
Procedure: as §1, §2

chymase [8] = target: T1, chymase; assay: inhibition; angiotensin I; recombinant 0.108
Procedure: as §1, §2

chymase [9] = target: T1, chymase; assay: inhibition; angiotensin I; recombinant 0.055
Procedure: as §1, §2

chymase [10] = target: T1, chymase; assay: SPR; stronger than 40N; solution A
Procedure: The binding activities against chymase of the nucleic acids shown by SEQ ID NO: 4-20 and 22-34 were determined by the surface plasmon resonance method using Biacore T100 (manufactured by GE Healthcare). The sensor chip used was the SA chip, which had streptavidin immobilized thereon. Bound thereto was about 1500 RU of a 16-nucleotide Poly dT with biotin bound to the 5' end thereof. […] 20 μL of chymase for analyte, prepared at 0.2 μM, was injected. Solution A was used as a running buffer.

B1: SEQ 14 (ssRNA)
RNA: GGGACGGUAGGAAUUCUCGUUCCUGACAGCAUUUGAGAUAGAUUUAAACAAACGCACAUAGAAGAGCGGCCGC
modifications: 2'-F U and C
IC50 (chymase [1]): 63 nM

GGGUAACUAUGGUUAGAUAGAGUUAAAAACCAUAGAAGACCC (ssRNA, 2'-F U and C) [SEQ 53]
IC50 (chymase [2]): 764 nM

UAACUAUGGUUAGAUAGAGUUAAAAACCAUAGAAGA (ssRNA, 2'-F U and C) [SEQ 54]
IC50 (chymase [3]): 614 nM

CUAUGGUUAGAUAGAGUUAAAAACCAUAG (ssRNA, 2'-F U and C) [SEQ 55]
IC50 (chymase [4]): 606 nM

GGCAGAUAGAGUUAAAGCC (ssRNA, 2'-F U and C) [SEQ 65]
IC50 (chymase [5]): 878 nM

GGGUUAGAUAGAGUUAAAAACCC (ssRNA, 2'-F U and C; 5' and 3' idT) [56(1)]
IC50 (chymase [6]): 404 nM

GGGUUAGAUAGAGUUAAAAACCC (ssRNA, 2'-F U and C; 5' PEG 40 kDa; 3' idT) [56(17)]
IC50 (chymase [7]): 613 nM

GGGUUAGAUAGAGUUAAAAACCC (ssRNA, 2'-F U and C; PS 5-6) [56(18)]
IC50 (chymase [8]): 174 nM

GGGUUAGAUAGAGUUAAAAACCC (ssRNA, 2'-F U and C; PS 6-7) [56(19)]
IC50 (chymase [9]): 130 nM

B2: SEQ 10 (ssRNA)
RNA: GGGACGGUAGGAAUUCCGCCGCCUAAAAAACGACGAUAUUACAGAAACGUCAAAUACAUAGAAGAGCGGCCGC
modifications: 2'-F U and C
binding result (chymase [10]): binds
